Reference: the supplement of paper PMC10724198
± gives the standard deviation of the averaged measurements.

Test system: Saccharomyces cerevisiae
Test: protein stability index of tFT-peptide fusion (C-terminal peptide) (PSI (0-1 scale)); higher = more stable (slower turnover)
Settings: temperature: 30 C
Protocol: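 MPS profiling in S. cerevisiae of the yeast C-terminome library: the last 12 aa of each annotated ORF are fused to the C-terminus of a sfGFP-mCherry timer, after a GGGS linker. Cells are FACS-sorted into 8 mCherry/sfGFP bins and deep-sequenced. PSI runs from 0 (unstable) to 1 (stable); wild type and das1Δ backgrounds, two technical replicates each.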

[1] = genetic background: das1 deletion

| Sequence | protein stability index [1] | protein stability index (genetic background: wild type) |
| --- | --- | --- |
| LKDEKRGDNVLA [THS1 C-terminal 12 aa] | 0.6983 ± 0.0068 | 0.67 ± 0.018 |
| LKHNGQRKLAST [ANT1 C-terminal 12 aa] | 0.685 ± 0.034 | 0.701 ± 0.033 |
| LKKPRSGFHVIV [YFR006W C-terminal 12 aa] | 0.69 ± 0.027 | 0.6371 ± 0.0052 |
| LKQENAYLLIRR [RPB8 C-terminal 12 aa] | 0.693 ± 0.0081 | 0.68 ± 0.01 |
| LKRTAIQFAAFS [SEC5 C-terminal 12 aa] | 0.6855 ± 0.0022 | 0.6844 ± 0.0012 |
| LLIQEEMKLKEV [YPK9 C-terminal 12 aa] | 0.7188 ± 0.0014 | 0.703 ± 0.022 |
| LLLPITSSLLFI [MIN4 C-terminal 12 aa] | 0.618 ± 0.011 | 0.62 ± 0.021 |
| LLMVGVPLLFSS [YPR159C-A C-terminal 12 aa] | 0.6249 ± 0.00071 | 0.6282 ± 0.0051 |
| LLSLLRVLKQPH [CSS1 C-terminal 12 aa] | 0.675 ± 0.023 | 0.66 ± 0.011 |
| LMGAALAAVMLL [FIT3 C-terminal 12 aa] | 0.6841 ± 0.0054 | 0.6409 ± 0.0026 |
| LMNAQSNETKLN [PTC6 C-terminal 12 aa] | 0.7111 ± 0.0056 | 0.692 ± 0.033 |
| LMPSASLQDFYG [VID27 C-terminal 12 aa] | 0.73 ± 0.014 | 0.726 ± 0.014 |
| LNFFAEETLDFE [EAT1 C-terminal 12 aa] | 0.734 ± 0.033 | 0.689 ± 0.033 |
| LNLPWKRKKTTI [YCR101C C-terminal 12 aa] | 0.707 ± 0.017 | 0.686 ± 0.019 |
| LNPIRSLRYCNY [YPP1 C-terminal 12 aa] | 0.7156 ± 0.0026 | 0.629 ± 0.024 |
| LNSIDPALISKY [AFT2 C-terminal 12 aa] | 0.744 ± 0.035 | 0.741 ± 0.036 |
| LQALIIVQVMFS [YLL059C C-terminal 12 aa] | 0.128 ± 0.025 | 0.157 ± 0.013 |
| LQAVAVAVSTKK [FAS2 C-terminal 12 aa] | 0.659 ± 0.01 | 0.65 ± 0.033 |
| LQESKSQEKNKI [MRX19 C-terminal 12 aa] | 0.7135 ± 0.0016 | 0.782 ± 0.06 |
| LQVKAVRAKLDE [ALD4 C-terminal 12 aa] | 0.699 ± 0.031 | 0.68 ± 0.037 |
| LREMMNKDFAGL [PSD2 C-terminal 12 aa] | 0.708 ± 0.02 | 0.698 ± 0.0081 |

| Sequence | protein stability index [1] | protein stability index (genetic background: wild type) |
| --- | --- | --- |
| LRKNRSLDERYF [YML057C-A C-terminal 12 aa] | 0.7089 ± 0.0023 | 0.6568 ± 0.0029 |
| LRNKPFWENKRL [IPL1 C-terminal 12 aa] | 0.702 ± 0.019 | 0.696 ± 0.015 |
| LRRIAKKHHKKK [SPB1 C-terminal 12 aa] | 0.699 ± 0.044 | 0.722 ± 0.034 |
| LRRLTSPSRTQP [BAG7 C-terminal 12 aa] | 0.71894 ± 0.00039 | 0.705 ± 0.012 |
| LRSKGKRYDTRS [YJR018W C-terminal 12 aa] | 0.7035 ± 0.0016 | 0.708 ± 0.024 |
| LRSKSRLRGSHT [AHC1 C-terminal 12 aa] | 0.73 ± 0.014 | 0.654 ± 0.038 |
| LSATIFLRGFLL [YIM2 C-terminal 12 aa] | 0.675 ± 0.029 | 0.649 ± 0.031 |
| LSFVLASLNANK [FUN14 C-terminal 12 aa] | 0.678 ± 0.021 | 0.67 ± 0.037 |
| LSIGQKLTTPLC [SYC1 C-terminal 12 aa] | 0.651 ± 0.015 | 0.656 ± 0.029 |
| LSLIYSPHLYMS [YJL136W-A C-terminal 12 aa] | 0.643 ± 0.013 | 0.101 ± 0.0022 |
| LSNIITLCRIIV [PEX34 C-terminal 12 aa] | 0.465 ± 0.0065 | 0.319 ± 0.0077 |
| LSQLVKKKPRRH [HIF1 C-terminal 12 aa] | 0.6885 ± 0.0039 | 0.729 ± 0.073 |
| LSVKWAVNTLMS [SRP101 C-terminal 12 aa] | 0.671 ± 0.014 | 0.568 ± 0.039 |
| LTSMSARIAFDN [AAD14 C-terminal 12 aa] | 0.7219 ± 0.0034 | 0.699 ± 0.024 |
| LVASNFFYAETK [TFS1 C-terminal 12 aa] | 0.7066 ± 0.00069 | 0.687 ± 0.028 |
| LVPEEEEETKDR [GRX5 C-terminal 12 aa] | 0.7214 ± 0.0068 | 0.698 ± 0.033 |
| LYAFHQVGIHFS [DIM1 C-terminal 12 aa] | 0.709 ± 0.032 | 0.685 ± 0.014 |
| LYELKGLLGNDS [INP2 C-terminal 12 aa] | 0.681 ± 0.021 | 0.673 ± 0.032 |
| LYHKDADTIFHA [IRC11 C-terminal 12 aa] | 0.708 ± 0.014 | 0.715 ± 0.015 |
| LYPLFEAVPFRR [YBL096C C-terminal 12 aa] | 0.729 ± 0.014 | 0.734 ± 0.01 |
| LYSFNQLEPLQT [GIC2 C-terminal 12 aa] | 0.703 ± 0.0092 | 0.669 ± 0.025 |

| Sequence | protein stability index [1] | protein stability index (genetic background: wild type) |
| --- | --- | --- |
| MDDEFVSGRFEI [SCH9 C-terminal 12 aa] | 0.717 ± 0.025 | 0.7026 ± 0.0042 |
| MDETIAPLVGCL [YEL008W C-terminal 12 aa] | 0.724 ± 0.012 | 0.701 ± 0.038 |
| MDLEKDRYYDLS [DAS2 C-terminal 12 aa] | 0.6908 ± 0.0068 | 0.68 ± 0.027 |
| MHQYSAIIPSGT [YJL182C C-terminal 12 aa] | 0.642 ± 0.019 | 0.603 ± 0.0061 |
| MITCLTAALKLN [AVT6 C-terminal 12 aa] | 0.6868 ± 0.0041 | 0.174 ± 0.0018 |
| MLQYLVFVYIEK [YCR085W C-terminal 12 aa] | 0.182 ± 0.0095 | 0.21 ± 0.016 |
| MTDFSSSIIKGK [YCR090C C-terminal 12 aa] | 0.713 ± 0.031 | 0.677 ± 0.048 |
| MVKIRTKNDAKN [TAF2 C-terminal 12 aa] | 0.7067 ± 0.0054 | 0.6135 ± 0.00067 |
| MVTSIRSTPNYI [MED6 C-terminal 12 aa] | 0.694 ± 0.021 | 0.722 ± 0.051 |
| NAILNGGSVSGL [YAR066W C-terminal 12 aa] | 0.677 ± 0.0079 | 0.668 ± 0.02 |
| NASYTKKYVPHP [YPR059C C-terminal 12 aa] | 0.682 ± 0.0097 | 0.703 ± 0.063 |
| NATYNDSESSLN [SPO13 C-terminal 12 aa] | 0.727 ± 0.016 | 0.721 ± 0.0083 |
| NDINNSRPITRK [ARO80 C-terminal 12 aa] | 0.682 ± 0.045 | 0.666 ± 0.03 |
| NEDWPNESKPLV [GOR1 C-terminal 12 aa] | 0.711 ± 0.0072 | 0.663 ± 0.011 |
| NEELEKLRPPIT [SIP3 C-terminal 12 aa] | 0.7001 ± 0.0018 | 0.716 ± 0.052 |
| NEIATKLEETKL [TYS1 C-terminal 12 aa] | 0.694 ± 0.037 | 0.687 ± 0.0072 |
| NESLSTILLYII [YKR033C C-terminal 12 aa] | 0.644 ± 0.008 | 0.561 ± 0.0068 |
| NFFESYRTISCL [YPL038W-A C-terminal 12 aa] | 0.6408 ± 0.0042 | 0.3261 ± 0.0021 |
| NFGVSSSFSFKP [PEX3 C-terminal 12 aa] | 0.7032 ± 0.003 | 0.7154 ± 0.0041 |
| NFVMTVFWKIPV [PER33 C-terminal 12 aa] | 0.5008 ± 0.0016 | 0.558 ± 0.075 |
| NGANIFITSALT [YGL176C C-terminal 12 aa] | 0.691 ± 0.004 | 0.684 ± 0.016 |

| Sequence | protein stability index [1] | protein stability index (genetic background: wild type) |
| --- | --- | --- |
| NGLKYHRGHSTH [SFP1 C-terminal 12 aa] | 0.703 ± 0.029 | 0.6745 ± 0.0032 |
| NIFYQLLLTVNY [YBR013C C-terminal 12 aa] | 0.229 ± 0.0065 | 0.272 ± 0.02 |
| NIGSPLGAPKKK [MBF1 C-terminal 12 aa] | 0.696 ± 0.031 | 0.7008 ± 0.0064 |
| NIHQTDYIYARL [BUD16 C-terminal 12 aa] | 0.798 ± 0.031 | 0.708 ± 0.12 |
| NILKVEKRAVLE [PMT1 C-terminal 12 aa] | 0.684 ± 0.013 | 0.659 ± 0.02 |
| NKEYWMKHKKPQ [PDE2 C-terminal 12 aa] | 0.688 ± 0.0074 | 0.762 ± 0.013 |
| NKRDKRPANFTR [TSC11 C-terminal 12 aa] | 0.7063 ± 0.0042 | 0.692 ± 0.018 |
| NKVEENLEGLYL [RPT2 C-terminal 12 aa] | 0.6934 ± 0.0063 | 0.671 ± 0.015 |
| NLSEAIHDNNGS [NNK1 C-terminal 12 aa] | 0.717 ± 0.019 | 0.7091 ± 0.00097 |
| NNVPPIHPSLLH [NGR1 C-terminal 12 aa] | 0.7115 ± 0.0066 | 0.695 ± 0.017 |
| NPSILGDFTRED [RTR1 C-terminal 12 aa] | 0.663 ± 0.015 | 0.715 ± 0.02 |
| NRHSYCFSNLAP [YOL085W-A C-terminal 12 aa] | 0.739 ± 0.0025 | 0.691 ± 0.023 |
| NRIVSLKDATSK [GLN4 C-terminal 12 aa] | 0.689 ± 0.021 | 0.685 ± 0.025 |
| NSFELNDFFITS [HAC1 C-terminal 12 aa] | 0.7145 ± 0.0011 | 0.74 ± 0.031 |
| NSLIFDAFNQIR [CDH1 C-terminal 12 aa] | 0.732 ± 0.029 | 0.736 ± 0.054 |
| NTSRIAKFFNRR [SEC15 C-terminal 12 aa] | 0.702 ± 0.031 | 0.70527 ± 7.1e-05 |
| NYAPHLSDATTS [MAC1 C-terminal 12 aa] | 0.694 ± 0.013 | 0.7064 ± 0.0029 |
| PAAKGKNLSFKR [RRP6 C-terminal 12 aa] | 0.7188 ± 0.0035 | 0.709 ± 0.015 |
| PADIDKYIIQRK [FMP46 C-terminal 12 aa] | 0.7015 ± 0.0048 | 0.672 ± 0.029 |
